{"source": "the nanobody polyreactivity screen of Harvey et al. (2022)", "data": [{"assay": "yeast display, Sf9 membrane polyspecificity reagent, FACS + sequencing; frameworks hold sequencing errors", "method_in_brief": "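A nanobody's polyreactivity label depends on the gate it was sorted from. Yeast display cells were stained with 10% biotinylated, detergent-solubilized Sf9 membrane reagent for 1 hour at 4 °C, enriched on streptavidin microbeads and sorted by FACS. The low and high (top ~1%) gates were set on anti-HA fluorescence for expression and streptavidin fluorescence for reagent binding.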", "values": [{"sequence": "QVQLVESGGGLVQAGGSLRLSCAASGSIFIGNTMGWYRQAPGKERELVATIRRSGSRTYDADSVKGRFTISRDNAKNTVYLQMNSLKPEDTAVYYCAADRLRTSGYKTIYDYWGQGTQVTVSS", "polyreactivity (PSR sort gate)": "low polyreactivity"}, {"sequence": "QVQLVESGGGLVQAGGSLRLSCAASGSIFIGNTMGWYRQAPGKERELVATIRRSGSRTYYADSVKGRFTISRDNAKNTVYLQLNSLKPEDTAVYYCAADRLRSSGYKTIYDYWGQGTQVTVSS", "polyreactivity (PSR sort gate)": "low polyreactivity"}, {"sequence": "QVQLVESGGGLVQAGGSLRLSCAASGSIFIGYAMGWNRQAPGKERELVAGISSNGGTTYYADSVKGRFTISRDNAKNTVYLQMNSLKPEDTAVYYCATQYYARGYLYDYWGHGTQVTVSS", "polyreactivity (PSR sort gate)": "low polyreactivity"}, {"sequence": "QVQLVESGGGLVQAGGSLRLSCAASGSIFILNAMGWYRQAPGKERELGAAISWSGGRTNYADSVKGRFTISRDNAKNPVYLHMNSLKPEDTAVYYCAARVTPYRGFYYWGQGTQVTVSS", "polyreactivity (PSR sort gate)": "high polyreactivity"}, {"sequence": "QVQLVESGGGLVQAGGSLRLSCAASGSIFINNTMGWYRQAPGKERELVAAISITGGSTYYADSVKGRFTISRDNAKNTVYLQMNSLKPEDTAVYYCAADPLQLYDYNYWGQGTQVTVSS", "polyreactivity (PSR sort gate)": "low polyreactivity"}, {"sequence": "QVQLVESGGGLVQAGGSLRLSCAASGSIFISYAMGWYRQAPGKERELVAAINSGGSTNYADSVKGRFTISRDNAKNTVYLQMNSLKPEDTAVYYCAVDGYFFQGPYYYWGQGTQVTVSS", "polyreactivity (PSR sort gate)": "low polyreactivity"}, {"sequence": "QVQLVESGGGLVQAGGSLRLSCAASGSIFITYAMGWYRQAPGKERELVAAIRDSGDRTYYADSVKGRFTISRDNAKKTVYLQMNSLKPEDTAVYYCNARWQEPLKYDYWGQGTQVTVSS", "polyreactivity (PSR sort gate)": "low polyreactivity"}, {"sequence": "QVQLVESGGGLVQAGGSLRLSCAASGSIFIYNAMGWYRQAPGKERELVAAINWTGGSTYYADSVKGRFTISRDNAKNTVYLQMNSMKPEDTAVYYCNALRYGSTRGYDYWGQGSQVTVSS", "polyreactivity (PSR sort gate)": "high polyreactivity"}, {"sequence": "QVQLVESGGGLVQAGGSLRLSCAASGSIFIYNVMGWYRQAPGKERELVATIRGSGGSTYYADSVKGRFTISRDNAQNTVYLQMNSLKPEDTAVYYCARRDYPVQWGRAYNYWGQGTQVTVSS", "polyreactivity (PSR sort gate)": "high polyreactivity"}, {"sequence": "QVQLVESGGGLVQAGGSLRLSCAASGSIFIYYAMGWYRQAPGKERELVAAISSSGDSTNYADSVKGRFTISRDNAKNTVYLQMNSLKPEDTAVYYCAADPYYFYIWYWWPSFDYWGQGTQVTVSS", "polyreactivity (PSR sort gate)": "low polyreactivity"}, {"sequence": "QVQLVESGGGLVQAGGSLRLSCAASGSIFKGYAMGWYRQAPGKERELVAANTYSGGGTYYADSVKGRFTISRDNAKNTVYLQMKSLKQEDTAVYYCNADRYYPDDLSDGVGTYDYWGQGTQVSVSS", "polyreactivity (PSR sort gate)": "low polyreactivity"}, {"sequence": "QVQLVESGGGLVQAGGSLRLSCAASGSIFKKNAMGWYRQEPGKERELVAAITRRGASTYYADSVKGRFTISRDNAKNNVYLQMNSLKREDTAVYYCAAPGKIGASFDNYYYWGQGTQVTVSS", "polyreactivity (PSR sort gate)": "high polyreactivity"}, {"sequence": "QVQLVESGGGLVQAGGSLRLSCAASGSIFKKYAMGWYRQAPGKERELVAAIRSSGGSTYYADSVKGRFTISRDNAKNTVYLQMNSLKPEDTAVYYCAAYVPQGYKLYYWGQGTQVSVSS", "polyreactivity (PSR sort gate)": "high polyreactivity"}, {"sequence": "QVQLVESGGGLVQAGGSLRLSCAASGSIFKKYAMGWYRQAPGKERELVAAISKSGGSTYYADSVKGRFTISRDNAKNTVYLQMNSLKPDDTAVYYCAAAAGGSAYWDYDYWGQGTQVTVSS", "polyreactivity (PSR sort gate)": "low polyreactivity"}, {"sequence": "QVQLVESGGGLVQAGGSLRLSCAASGSIFKLYSMGWSRQAPGKERELVATIRWSGGSTYYADSVKGRFTISRDNAKNTVYLQMNSLKPEDTAVYYCAARRVRPNGYTSSPLDYWGQGTQVTVSS", "polyreactivity (PSR sort gate)": "high polyreactivity"}, {"sequence": "QVQLVESGGGLVQAGGSLRLSCAASGSIFKPYAMGWYRQAPGKERELVAAISGIGGSTYYADSVKGRFTISRDNAKNTVYLQMNCLKPEDTAVYYCAADTFFKIFSEYNYWGQGTQVTVSS", "polyreactivity (PSR sort gate)": "high polyreactivity"}, {"sequence": "QVQLVESGGGLVQAGGSLRLSCAASGSIFKPYAMGWYRQAPGKERELVAAISRSGSTYYADSVKGRFTISRDNAKNSVYLQMNSLKPEVTAVFYCAAETQARWRRYDYWGQGSQVTVSS", "polyreactivity (PSR sort gate)": "low polyreactivity"}, {"sequence": "QVQLVESGGGLVQAGGSLRLSCAASGSIFKPYAMGWYRQAPGKERELVAVISSGGSTNYADSVKGRFTISRDNAKNTVYLQMNSLKPEDTAVYYCAAEDQYGYDYWGQGTQVTVSS", "polyreactivity (PSR sort gate)": "high polyreactivity"}, {"sequence": "QVQLVESGGGLVQAGGSLRLSCAASGSIFKRNAMGWYRQAPGKERELVAAITGGGRTNYADSVKGRFTISRDNAKNTVYLQMNSLNPEDTAVYYCAADWYGVGLYYTWTRHDYWGQGTQVTVSS", "polyreactivity (PSR sort gate)": "low polyreactivity"}, {"sequence": "QVQLVESGGGLVQAGGSLRLSCAASGSIFKRNAMGWYRQAPGKERELVAAITSSGGTTYYADSVKGRFTISRDNAKNTVYLQMNSLKPEDTAVYYCNAGYGVRSVRRFDYWGQGTQVTVSS", "polyreactivity (PSR sort gate)": "high polyreactivity"}, {"sequence": "QVQLVESGGGLVQAGGSLRLSCAASGSIFKRYAMGWYRQAPGKERELVAAITYNGGSTYYADSVKGRFTISRDNAKNTVYLQMNSLKPEDTAVYYCAAERYNGYDYWGQGTQVTVSS", "polyreactivity (PSR sort gate)": "high polyreactivity"}, {"sequence": "QVQLVESGGGLVQAGGSLRLSCAASGSIFKSNAMGWYRQAPGKERELVAAISNGGITNYADSVKGRFTISRDNAKNSVYLQMNSLKPEDTAVYYCATSDVREIWVDYWGQGTQVTVSS", "polyreactivity (PSR sort gate)": "low polyreactivity"}, {"sequence": "QVQLVESGGGLVQAGGSLRLSCAASGSIFKSNGMGWYRQAPGKERELVAAITGSGGTTYYADSVKGRFTISRDNAKNTVYLQMNSLKPEDTAVYYCAADIYWYPTYYYWGQGTQVTVSS", "polyreactivity (PSR sort gate)": "low polyreactivity"}, {"sequence": "QVQLVESGGGLVQAGGSLRLSCAASGSIFKVNVMGWYRQAPGKERELVAAISRSGGNTYYADSVKGRFTISRDNAKNTVYLQMNSLKPEDTAVYYCATGASYLRRYDHPHSDVDYWGQGTQVTVSS", "polyreactivity (PSR sort gate)": "low polyreactivity"}, {"sequence": "QVQLVESGGGLVQAGGSLRLSCAASGSIFKVYAMGWYRQAPGKERELVAAITGSGGSTYYADSVKGRFTISRDNAKNTVYLQMNSLKPEDTAVYYCNTDYYYSGYFRRFDYWGQGTQVTVSS", "polyreactivity (PSR sort gate)": "high polyreactivity"}, {"sequence": "QVQLVESGGGLVQAGGSLRLSCAASGSIFKWYAMGWYRQAPGKERALVATISSSGSSTYYADSVKGRLTISRDNAKNTVYLQMNSLKPEDTAVYYCATTYGWRYPAMDYWGQGTQVTVSS", "polyreactivity (PSR sort gate)": "high polyreactivity"}, {"sequence": "QVQLVESGGGLVQAGGSLRLSCAASGSIFKWYAMGWYRQAPGKERELVASITWSGGSTYYADSVKGRFTISRDNAKNTVYLQMNSLKPEDTAVYYCNALSWVRGDYWGQGTQVTVSS", "polyreactivity (PSR sort gate)": "low polyreactivity"}, {"sequence": "QVQLVESGGGLVQAGGSLRLSCAASGSIFKWYAMGWYRQAPGKERELVAVISSGGNTYYADSVKGRFTISRDNAKNTVYLQMNSLKPEDTAVYYCAARVTSHMYYWGQGTQVTVSS", "polyreactivity (PSR sort gate)": "high polyreactivity"}, {"sequence": "QVQLVESGGGLVQAGGSLRLSCAASGSIFKYNAMGWYRPAPGKERELVAAISWSGGSTRYADSLKGRFTISRDNATNTGYLQMNSLKPEDTAVYYCAAKHGRNYAANALYGYWGQGTQVTVSS", "polyreactivity (PSR sort gate)": "high polyreactivity"}, {"sequence": "QVQLVESGGGLVQAGGSLRLSCAASGSIFKYNAMGWYRQAPGKERQLVAAISSSGGYTSYADSVKGRFTISRDNAKNTVYLQMNSLKPEDTAVYYCNAPYLIYKKGRYDYWGQGTQVTVSS", "polyreactivity (PSR sort gate)": "high polyreactivity"}, {"sequence": "QVQLVESGGGLVQAGGSLRLSCAASGSIFKYNPMGWDRQAPGKERELVAAITYRGASTYYADSVKGRFTISRDNAKNTVYLQMNSLKPEDTAVYYCNAKVRKSRFYYWGQGTQVTVSS", "polyreactivity (PSR sort gate)": "high polyreactivity"}, {"sequence": "QVQLVESGGGLVQAGGSLRLSCAASGSIFKYYAMGWYRQAPGKERELVAAIDWSGGNTYADSVKGRFTISRDNAKNTVYLQMNSLKPEDTAVYYCNAPGFRRLWGFGYDYWGQGTQVTVSS", "polyreactivity (PSR sort gate)": "high polyreactivity"}, {"sequence": "QVQLVESGGGLVQAGGSLRLSCAASGSIFKYYAMGWYRQAPGKERELVAAISTGGTTNYADSVKGRFTISRDNAKKTVYLQMNSLKPDDTAVYYCNRDFLVRSRYKYYYWGQGTQVTVSS", "polyreactivity (PSR sort gate)": "low polyreactivity"}, {"sequence": "QVQLVESGGGLVQAGGSLRLSCAASGSIFKYYTIGWYRQAPGKERELVAAISWSGGRTYYADSVKGRFTISRDIAKNTVYLQMNSLKPEDTAVYYCAKYVSYSRTLYDYWGQGTKVTVSS", "polyreactivity (PSR sort gate)": "high polyreactivity"}, {"sequence": "QVQLVESGGGLVQAGGSLRLSCAASGSIFKYYTMGWYRQAPGKEREFVAAITRSGGSTYYADSVKGRFTISRDNAKNTVYLQMNSLKPEDTAVYYCAARTIRDQTVRFGHWGQGTQVTVSS", "polyreactivity (PSR sort gate)": "high polyreactivity"}, {"sequence": "QVQLVESGGGLVQAGGSLRLSCAASGSIFKYYTMGWYRQAPGKERELVAAISWRGGSTYYADSVKGRFTISRDNAKNTVYLQMNSLKPEDTAVYYCAAKSYYNYYYWGQGTQVTVSS", "polyreactivity (PSR sort gate)": "high polyreactivity"}, {"sequence": "QVQLVESGGGLVQAGGSLRLSCAASGSIFKYYTRGWYRQAPGKERELVAAISGSGGTTYYADSVKGRFTISRDNAKNTVYLQMNSLKPEDTAVYYCATAYYRAFRGDYWGQGTQVTVSS", "polyreactivity (PSR sort gate)": "high polyreactivity"}, {"sequence": "QVQLVESGGGLVQAGGSLRLSCAASGSIFLIYDMGWYRQAPGKEMELVAAISNSVGSTYADSVKGRFTISRDNAKNTVYLQINSLKPEDTAVYYCNADSGPIDGRGGYWGQGTQVTVSS", "polyreactivity (PSR sort gate)": "low polyreactivity"}, {"sequence": "QVQLVESGGGLVQAGGSLRLSCAASGSIFLKYAMGWYRQAPGKERELVAAISSRGGSTYYADSVKGRFTISRDNAKNTVYLQMNSLKPEDTAVYYCAAKRWPGTDGYWGQGTQVTVSS", "polyreactivity (PSR sort gate)": "high polyreactivity"}, {"sequence": "QVQLVESGGGLVQAGGSLRLSCAASGSIFLNYAMGWYRQAPGNERELVAGISNGGSTNYADSVKGRFTISRDNAKNTVYLQMNSLKPEDTAVYYCARPAYKSRGKRFDYLGQGTQVTVSS", "polyreactivity (PSR sort gate)": "low polyreactivity"}, {"sequence": "QVQLVESGGGLVQAGGSLRLSCAASGSIFLPYAMGWYRQAPGKEREFVAAIRWSTGRTFYADSVKGRFTISRDNAKNTVYLQMNSLKPEDTAVYYCAAVWPDVRGYDYWGQGTQVTVSS", "polyreactivity (PSR sort gate)": "high polyreactivity"}, {"sequence": "QVQLVESGGGLVQAGGSLRLSCAASGSIFLRYAMGWYRQAPGKERELVAAITSSGGSTYYADSVKGRFTISRDNAKNTLYLQMNSLKPEDTAVYYCNRYSYLFPYYWKYDYWGQGTQVTVSS", "polyreactivity (PSR sort gate)": "high polyreactivity"}, {"sequence": "QVQLVESGGGLVQAGGSLRLSCAASGSIFLSNAMGWYRQAPGKERELVAAISRRGASTYYADSVKGRFTISRDNAKNTVYLQMNSLKPEDTAVYYCAARSYSAYGYNYWGQGTQVTVSS", "polyreactivity (PSR sort gate)": "high polyreactivity"}]}]}
